Assays:
AncSZ = experiment: phosphorylation enrichment, bacterial display (enrichment ratio); higher = better substrate or ligand; peptides without Tyr show the background
c-Abl (mouse) = experiment: as above
c-Src = experiment: as above
Fyn = Fyn (UniProt P06241); experiment: as above
MERTK = MERTK (UniProt Q12866); experiment: as above
EPHB2 = EPHB2 (UniProt P29323); experiment: as above
FGFR3 = FGFR3 (UniProt P22607); experiment: as above
Fer (mouse) = experiment: as above
EPHB1 = EPHB1 (UniProt P54762); experiment: as above
Hck = Hck (UniProt P08631); experiment: as above
Sequence of Hck (P08631 whole entry, looked up): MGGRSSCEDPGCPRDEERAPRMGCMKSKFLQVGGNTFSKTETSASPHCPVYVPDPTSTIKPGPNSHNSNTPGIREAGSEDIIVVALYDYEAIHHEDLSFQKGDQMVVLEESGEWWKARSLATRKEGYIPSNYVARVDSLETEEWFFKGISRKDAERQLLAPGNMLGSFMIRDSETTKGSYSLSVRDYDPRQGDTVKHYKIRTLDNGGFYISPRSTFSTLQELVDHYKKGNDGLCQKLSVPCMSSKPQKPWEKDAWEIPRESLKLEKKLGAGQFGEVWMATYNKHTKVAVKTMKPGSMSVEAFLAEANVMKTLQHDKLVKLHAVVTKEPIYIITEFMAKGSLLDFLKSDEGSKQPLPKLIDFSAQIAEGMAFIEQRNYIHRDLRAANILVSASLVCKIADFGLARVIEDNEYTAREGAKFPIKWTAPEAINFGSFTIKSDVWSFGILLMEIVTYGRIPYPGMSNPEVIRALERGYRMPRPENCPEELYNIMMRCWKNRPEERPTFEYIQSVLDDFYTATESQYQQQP

FGFR1 = FGFR1 (UniProt P11362); experiment: as above
Sequence of FGFR1 (P11362 whole entry, looked up): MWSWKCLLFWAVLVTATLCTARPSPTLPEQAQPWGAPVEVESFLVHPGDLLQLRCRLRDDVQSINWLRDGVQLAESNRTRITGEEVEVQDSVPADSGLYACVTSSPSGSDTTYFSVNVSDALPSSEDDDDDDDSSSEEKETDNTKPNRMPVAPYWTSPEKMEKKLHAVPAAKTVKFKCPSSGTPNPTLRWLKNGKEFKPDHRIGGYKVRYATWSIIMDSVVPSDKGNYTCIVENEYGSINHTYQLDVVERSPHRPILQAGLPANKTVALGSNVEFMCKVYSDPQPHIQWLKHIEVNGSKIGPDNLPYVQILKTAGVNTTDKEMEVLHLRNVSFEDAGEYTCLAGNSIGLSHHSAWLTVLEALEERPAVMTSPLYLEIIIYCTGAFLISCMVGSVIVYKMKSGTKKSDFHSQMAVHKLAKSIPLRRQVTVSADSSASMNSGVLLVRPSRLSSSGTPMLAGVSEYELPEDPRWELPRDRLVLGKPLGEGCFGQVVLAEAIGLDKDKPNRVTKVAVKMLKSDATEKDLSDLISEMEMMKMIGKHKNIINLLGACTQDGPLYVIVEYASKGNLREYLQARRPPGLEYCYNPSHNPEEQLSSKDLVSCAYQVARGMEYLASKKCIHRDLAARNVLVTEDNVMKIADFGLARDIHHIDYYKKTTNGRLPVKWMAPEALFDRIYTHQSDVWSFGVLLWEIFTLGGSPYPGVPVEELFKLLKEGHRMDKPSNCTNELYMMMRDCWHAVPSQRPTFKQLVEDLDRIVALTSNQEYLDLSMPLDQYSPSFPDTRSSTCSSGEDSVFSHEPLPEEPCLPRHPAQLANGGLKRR

Jak2 = Jak2 (UniProt O60674); experiment: as above
Fes = Fes (UniProt P07332); experiment: as above
Sequence of Fes (P07332 whole entry, looked up): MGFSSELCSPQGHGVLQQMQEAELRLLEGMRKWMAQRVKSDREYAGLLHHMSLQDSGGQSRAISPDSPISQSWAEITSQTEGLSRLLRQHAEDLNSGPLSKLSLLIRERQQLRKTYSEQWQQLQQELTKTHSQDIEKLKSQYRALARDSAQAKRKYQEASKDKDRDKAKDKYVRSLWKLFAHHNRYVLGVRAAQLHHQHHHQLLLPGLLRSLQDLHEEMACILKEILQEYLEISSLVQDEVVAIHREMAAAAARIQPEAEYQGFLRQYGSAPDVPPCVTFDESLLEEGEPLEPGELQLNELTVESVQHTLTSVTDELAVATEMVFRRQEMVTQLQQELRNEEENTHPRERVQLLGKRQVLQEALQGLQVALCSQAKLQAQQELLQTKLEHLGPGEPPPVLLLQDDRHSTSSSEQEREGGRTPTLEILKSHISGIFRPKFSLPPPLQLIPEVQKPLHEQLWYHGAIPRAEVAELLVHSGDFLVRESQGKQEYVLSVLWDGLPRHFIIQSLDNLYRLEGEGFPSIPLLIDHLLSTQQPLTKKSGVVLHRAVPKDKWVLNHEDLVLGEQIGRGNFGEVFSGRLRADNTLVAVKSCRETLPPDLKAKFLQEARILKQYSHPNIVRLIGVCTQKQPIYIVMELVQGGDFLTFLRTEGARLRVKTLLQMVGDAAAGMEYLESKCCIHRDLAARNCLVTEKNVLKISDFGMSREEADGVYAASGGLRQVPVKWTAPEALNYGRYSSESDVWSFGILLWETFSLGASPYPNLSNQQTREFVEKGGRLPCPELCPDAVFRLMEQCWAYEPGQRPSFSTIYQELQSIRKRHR

SHP2-C SH2 = experiment: SH2 binding enrichment of the phosphorylated peptide, bacterial display (enrichment ratio); higher = better substrate or ligand; peptides without Tyr show the background
Grb2 SH2 = Grb2 SH2 (UniProt P62993); experiment: as above
c-Src SH2 = experiment: as above
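Throughout, for SH2 binding enrichment of the phosphorylated peptide, bacterial display: peptide library displayed on the E. coli surface as eCPX fusions, selected cells deep-sequenced, score is each peptide's frequency after selection divided by its frequency in the input.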
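Throughout, for phosphorylation enrichment, bacterial display: 11-residue human phosphosite peptides and single-mutation variants displayed on the E. coli surface, counted by deep sequencing, each peptide's frequency after selection divided by its frequency in the unselected input library; frequency after pTyr selection over input frequency; kinase dosed for 20-30% of maximal phosphorylation in three min.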

Sequence of FGFR3 (P22607 whole entry, looked up): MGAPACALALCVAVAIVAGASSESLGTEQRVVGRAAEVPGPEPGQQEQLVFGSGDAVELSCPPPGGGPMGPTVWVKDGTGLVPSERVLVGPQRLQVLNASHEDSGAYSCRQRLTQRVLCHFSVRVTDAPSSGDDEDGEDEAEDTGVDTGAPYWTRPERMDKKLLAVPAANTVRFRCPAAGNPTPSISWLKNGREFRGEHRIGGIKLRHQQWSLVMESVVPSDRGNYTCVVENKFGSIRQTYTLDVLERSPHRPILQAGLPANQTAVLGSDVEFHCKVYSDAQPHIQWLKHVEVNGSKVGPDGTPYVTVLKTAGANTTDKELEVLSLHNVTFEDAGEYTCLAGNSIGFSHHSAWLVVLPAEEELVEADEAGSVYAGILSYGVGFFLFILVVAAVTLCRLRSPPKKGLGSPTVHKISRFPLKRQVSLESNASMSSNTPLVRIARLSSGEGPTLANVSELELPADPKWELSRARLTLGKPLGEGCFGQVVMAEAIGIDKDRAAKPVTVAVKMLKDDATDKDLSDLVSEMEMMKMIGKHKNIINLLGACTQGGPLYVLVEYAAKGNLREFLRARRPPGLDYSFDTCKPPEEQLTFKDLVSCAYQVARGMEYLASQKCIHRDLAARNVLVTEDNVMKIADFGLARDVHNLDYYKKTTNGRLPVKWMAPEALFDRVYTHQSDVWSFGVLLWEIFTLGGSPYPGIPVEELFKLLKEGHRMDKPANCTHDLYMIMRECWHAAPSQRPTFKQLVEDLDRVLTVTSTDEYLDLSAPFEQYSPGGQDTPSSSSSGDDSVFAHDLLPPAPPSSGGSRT
Sequence of MERTK (Q12866 whole entry, looked up): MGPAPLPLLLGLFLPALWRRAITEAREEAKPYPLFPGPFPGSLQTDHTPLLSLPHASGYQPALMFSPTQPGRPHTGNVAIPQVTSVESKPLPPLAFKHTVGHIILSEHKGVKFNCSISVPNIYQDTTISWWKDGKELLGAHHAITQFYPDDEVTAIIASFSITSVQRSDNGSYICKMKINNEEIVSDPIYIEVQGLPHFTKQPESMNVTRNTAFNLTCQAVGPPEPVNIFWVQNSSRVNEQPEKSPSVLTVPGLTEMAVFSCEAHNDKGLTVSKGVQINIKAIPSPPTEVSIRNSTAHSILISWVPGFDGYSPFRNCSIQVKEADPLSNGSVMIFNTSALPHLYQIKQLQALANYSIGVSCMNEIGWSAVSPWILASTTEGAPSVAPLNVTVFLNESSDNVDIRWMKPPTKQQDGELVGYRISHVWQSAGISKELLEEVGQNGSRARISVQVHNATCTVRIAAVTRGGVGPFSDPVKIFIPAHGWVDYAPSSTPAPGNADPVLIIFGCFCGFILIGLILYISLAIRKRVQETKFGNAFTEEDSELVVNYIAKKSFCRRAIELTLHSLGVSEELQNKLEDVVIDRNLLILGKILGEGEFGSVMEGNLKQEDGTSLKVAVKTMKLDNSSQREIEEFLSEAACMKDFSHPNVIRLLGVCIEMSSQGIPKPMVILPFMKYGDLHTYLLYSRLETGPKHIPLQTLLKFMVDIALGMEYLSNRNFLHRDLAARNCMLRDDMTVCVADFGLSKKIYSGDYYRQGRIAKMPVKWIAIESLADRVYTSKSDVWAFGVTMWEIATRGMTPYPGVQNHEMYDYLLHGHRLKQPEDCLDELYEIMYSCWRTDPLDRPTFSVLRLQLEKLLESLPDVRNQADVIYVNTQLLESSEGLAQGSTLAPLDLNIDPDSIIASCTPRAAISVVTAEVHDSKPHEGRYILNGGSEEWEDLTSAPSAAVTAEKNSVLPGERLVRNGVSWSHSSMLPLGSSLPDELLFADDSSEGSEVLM
Sequence of Fyn (P06241 whole entry, looked up): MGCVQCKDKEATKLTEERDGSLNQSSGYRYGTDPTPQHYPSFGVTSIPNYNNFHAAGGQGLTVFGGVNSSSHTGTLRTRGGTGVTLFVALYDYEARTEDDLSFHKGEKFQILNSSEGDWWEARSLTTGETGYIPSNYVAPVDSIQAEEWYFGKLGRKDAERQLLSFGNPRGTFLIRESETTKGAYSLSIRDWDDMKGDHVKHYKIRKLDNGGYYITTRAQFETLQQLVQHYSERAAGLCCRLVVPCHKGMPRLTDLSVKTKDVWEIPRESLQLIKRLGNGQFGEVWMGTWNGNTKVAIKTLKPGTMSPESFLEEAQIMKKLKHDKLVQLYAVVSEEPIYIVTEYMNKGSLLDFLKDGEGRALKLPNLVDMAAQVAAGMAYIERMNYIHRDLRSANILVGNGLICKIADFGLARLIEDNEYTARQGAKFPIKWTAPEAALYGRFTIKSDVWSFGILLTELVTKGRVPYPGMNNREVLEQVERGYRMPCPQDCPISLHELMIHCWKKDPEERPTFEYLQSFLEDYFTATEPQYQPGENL

| SH2 binding enrichment (SHP2-C SH2) | SH2 binding enrichment (Grb2 SH2) | SH2 binding enrichment (c-Src SH2) | Sequence | phosphorylation enrichment (AncSZ) | phosphorylation enrichment (c-Abl (mouse)) | phosphorylation enrichment (c-Src) | phosphorylation enrichment (Fyn) | phosphorylation enrichment (MERTK) | phosphorylation enrichment (EPHB2) | phosphorylation enrichment (FGFR3) | phosphorylation enrichment (Fer (mouse)) | phosphorylation enrichment (EPHB1) | phosphorylation enrichment (Hck) | phosphorylation enrichment (FGFR1) | phosphorylation enrichment (Jak2) | phosphorylation enrichment (Fes) |
| --- | --- | --- | --- | --- | --- | --- | --- | --- | --- | --- | --- | --- | --- | --- | --- | --- |
| 0.611 | 0.741 | 0.494 | FFRDGHMPRQF [GSS_Y270_Y270H_YF] | 0.472 | 0.505 | 0.365 | 0.374 | 0.324 | 0.363 | 0.487 | 0.355 | 0.367 | 0.357 | 0.392 | 0.491 | 0.612 |
| 1.04 | 1.16 | 0.81 | SKEPYYVHCIK [MYO1D_Y586_R588H] | 0.965 | 0.615 | 0.543 | 0.58 | 0.559 | 0.704 | 0.664 | 0.498 | 0.622 | 0.557 | 0.77 | 0.677 | 0.932 |
| 1.39 | 2.68 | 1.15 | SLAARYFNWVS [FLT4_Y1230_YF] | 1.15 | 0.822 | 0.431 | 0.494 | 0.636 | 0.698 | 0.718 | 0.479 | 0.586 | 0.532 | 0.555 | 0.935 | 1.26 |
| 1.16 | 1.28 | 1.2 | TWSPKYTLRSH [STRN3_Y474_N471S] | 0.735 | 0.52 | 0.348 | 0.445 | 0.426 | 0.477 | 0.529 | 0.389 | 0.593 | 0.419 | 0.353 | 0.728 | 0.87 |
| 1.53 | 1.36 | 0.781 | IVKAFYVHARA [AIPL1_Y268_R270H_YF] | 1.04 | 0.718 | 0.41 | 0.585 | 0.601 | 0.621 | 0.825 | 0.559 | 0.492 | 0.488 | 0.479 | 0.955 | 1.18 |
| 0.779 | 0.712 | 0.404 | IEELTYIIKQD [STX5_Y137] | 1.33 | 0.801 | 0.554 | 0.461 | 0.469 | 0.578 | 0.665 | 0.411 | 0.55 | 0.528 | 0.551 | 1.25 | 1.52 |
| 0.657 | 0.702 | 1.31 | VVAHQYSFAPD [TNS3_Y601] | 0.684 | 0.504 | 0.481 | 0.542 | 0.414 | 0.353 | 0.727 | 0.401 | 0.521 | 0.515 | 0.74 | 0.529 | 0.736 |
| 0.762 | 0.903 | 0.601 | FGGLRYGFGGL [KRTAP20-2_Y13_V17G_YF] | 0.739 | 0.553 | 0.379 | 0.389 | 0.37 | 0.448 | 0.536 | 0.431 | 0.445 | 0.465 | 0.672 | 0.664 | 1.08 |

Reference: the supplement of paper PMC10065799, “High-throughput profiling of sequence recognition by tyrosine kinases and SH2 domains using bacterial peptide display” (eLife, 2023)
